Data: patent publication US20260055154A1 (CHENGDU AODA BIOTECHNOLOGY, published 2026)
Starred links: 1 amine or outer side, 2 acyl side, 3 side chain; linkers in the order of their positions; H or OH if unused. Non-standard residues stand in square brackets, D forms with d. Groups on a side chain read outwards from the residue. No end group written: not given here. *: point of attachment. C20 diacid = O=C(O)CCCCCCCCCCCCCCCCCCC(=O)*; γGlu = O=C(O)[C@H](CCC(=O)[*:2])N[*:1]; AEEA = NCCOCCOCC(=O)O; Aib = CC(C)(N)C(=O)O

Experiments:
[1] = target: glucagon-like peptide-1 (GLP-1) receptor; test: cell-based or functional assay
glucagon (Gcg) receptor = test: cell-based or functional assay

Binder | Relative biological activity (cAMP chemiluminescence, RLU, CHO-K1 cells stably expressing GLP-1R; relative to OXM3) [1] [%] | Biological activity (%) (cAMP chemiluminescence, RLU, CHO-K1 cells stably expressing GcgR; relative to OXM3) (glucagon (Gcg) receptor)
H[Aib]QGTFTSDYSKYLDEKKAK([AEEA-AEEA-γGlu-C20 diacid])EFVEWLLEGGPSSGAPPPS-NH2 [Compound 1] | 188 | 90.5
H[Aib]QGTFTSDYSKYLDEKKAK([Gly-Gly-Glu-Gly-Glu-Gly-γGlu-C20 diacid])EFVEWLLEGGPSSGAPPPS-NH2 [Compound 4] | 116 | 49.6
H[Aib]QGTFTSDYSKYLDEKKAK([PEG5CH2CO-γGlu-C20 diacid])EFVEWLLEGGPSSGAPPPS-NH2 [Compound 2] | 260 | 86.9
H[Aib]QGTFTSDYSKYLDEKKAKEFVEWLLEGGPSSGAPPPS-NH2 (not fully specified (residue 20)) [Compound 3] | 158 | 94.2
